Results as given in the supplement of paper PMC7125110.
± gives the standard error. For some of these results: Fewer inactive variants are shown than the library holds.

B1: glmS ribozyme (parent)
chain: AUAAAAGCGCCAGAACUACAGAAAUGUAGUUGACGAGGAGGAGGUUUAUCGAAUUUUCGGCGGAUGCCUCCAAA

Assays:
Conditions in all cases: with glucosamine-6-phosphate
glucosamine-6-phosphate [1] = variants of: B1; assay: kcat; higher = faster cleavage; RNA array
Summary of the method: (§1)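 Barcoded ribozyme variants on sequenced MiSeq chips were transcribed in situ by E. coli RNA polymerase and followed at 37 °C through a hybridised Cy3 probe. Glucosamine-6-phosphate at 40 μM to 10 mM in HEPES/KCl/Mg(OAc)2 buffer was flowed in, and tiles were imaged over ~14 h. Signals were normalised to baseline and to non-cleaving reference variants, and per-tile medians were fit to one- or two-exponential decays to give kobs. Weighted Michaelis–Menten fits across concentrations gave kcat and KM.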

glucosamine-6-phosphate [2] = variants of: B1; assay: self-cleavage kobs at 2500 uM GlcN6P; higher = faster cleavage; RNA array
Summary of the method: as §1

glucosamine-6-phosphate [3] = variants of: B1; assay: self-cleavage kobs at 10000 uM GlcN6P; higher = faster cleavage; RNA array
Summary of the method: as §1

glucosamine-6-phosphate [4] = variants of: B1; assay: self-cleavage kobs at 640 uM GlcN6P; higher = faster cleavage; RNA array
Summary of the method: as §1

glucosamine-6-phosphate [5] = variants of: B1; assay: self-cleavage kobs at 160 uM GlcN6P; higher = faster cleavage; RNA array
Summary of the method: as §1

glucosamine-6-phosphate [6] = variants of: B1; assay: KM; higher = weaker cofactor use; RNA array
Summary of the method: as §1

glucosamine-6-phosphate [7] = variants of: B1; assay: self-cleavage kobs at 40 uM GlcN6P; higher = faster cleavage; RNA array
Summary of the method: as §1

| Variant | kcat (glucosamine-6-phosphate [1]) [s⁻¹] | self-cleavage kobs at 2500 uM GlcN6P (glucosamine-6-phosphate [2]) [s⁻¹] | self-cleavage kobs at 10000 uM GlcN6P (glucosamine-6-phosphate [3]) [s⁻¹] | self-cleavage kobs at 640 uM GlcN6P (glucosamine-6-phosphate [4]) [s⁻¹] | self-cleavage kobs at 160 uM GlcN6P (glucosamine-6-phosphate [5]) [s⁻¹] | KM (glucosamine-6-phosphate [6]) [µM] | self-cleavage kobs at 40 uM GlcN6P (glucosamine-6-phosphate [7]) [s⁻¹] |
| --- | --- | --- | --- | --- | --- | --- | --- |
| A52C C70U | 5.27e-05 ± 9.4e-06 | 5.72e-05 ± 1e-05 | 4.63e-05 ± 7.5e-06 | – | – | – | – |
| A53C U57G | 0.000348 ± 0.00012 | 0.000143 ± 1.9e-05 | 0.000339 ± 4.6e-05 | 9.98e-05 ± 1.6e-05 | – | – | – |
| G51U C68U | < 1e-05 | – | – | – | – | – | – |
| G51A U69A | 1.6e-05 ± 2.9e-06 | – | – | – | – | – | – |
| A52G U57A | 0.000484 ± 0.00016 | 0.00023 ± 2.4e-05 | 0.000289 ± 8e-05 | 6.62e-05 ± 9.6e-06 | 4.1e-05 ± 1.6e-05 | – | – |
| A52G U57C | 0.000378 ± 1.3e-05 | 0.000227 ± 3.1e-05 | 0.000314 ± 4.4e-05 | 9.94e-05 ± 1e-05 | 2.83e-05 ± 1.3e-05 | 1790 ± 110 | – |
| A53C A64G | 0.00338 ± 0.00072 | 0.00249 ± 0.0011 | 0.00277 ± 0.00054 | 0.00177 ± 0.00058 | 0.000218 ± 9.8e-05 | 1710 ± 540 | 7.76e-05 ± 1.7e-05 |
| A53C A64U | < 1e-05 | – | – | – | – | – | < 1e-05 |
| A52G C70A | 6.21e-05 ± 4e-06 | 6.59e-05 ± 6.1e-06 | 5.24e-05 ± 7.9e-06 | 5.8e-05 ± 6.8e-06 | 4.3e-05 ± 1.3e-05 | – | 2.42e-05 ± 1.2e-05 |
| A52G C70U | 0.00261 ± 0.00024 | 0.000878 ± 0.00015 | 0.00194 ± 0.00018 | 0.00037 ± 6.1e-05 | 0.000108 ± 3.7e-05 | 3870 ± 600 | 2.96e-05 ± 5.4e-06 |
| G51C U69G | 1.7e-05 ± 4.2e-06 | – | – | – | – | – | – |
| A52U U56G | 0.000175 ± 4.1e-05 | 5.36e-05 ± 9.7e-06 | 0.000122 ± 2.5e-05 | 2.83e-05 ± 1.1e-05 | – | 5090 ± 2000 | – |
| A52G U54G | 0.00117 ± 0.00021 | 0.000616 ± 8.2e-05 | 0.000855 ± 0.00012 | 0.000183 ± 2.3e-05 | 6.71e-05 ± 1.6e-05 | 3060 ± 840 | – |
| A52G U54A | 0.00109 ± 0.00027 | 0.00057 ± 0.00011 | 0.00101 ± 0.0002 | 0.000442 ± 7.6e-05 | 9.56e-05 ± 1.7e-05 | 1560 ± 590 | – |
| A52G C58A | 4.08e-05 ± 7.3e-06 | 4.01e-05 ± 9.9e-06 | 3.55e-05 ± 9.9e-06 | – | – | – | – |
| C50U G59U | < 1e-05 | – | < 1e-05 | < 1e-05 | – | 71.2 ± 32 | < 1e-05 |
| A52C U69A | 1.76e-05 ± 5.9e-06 | – | – | – | – | – | – |
| C50U A64G | 0.000283 ± 5e-05 | 5.38e-05 ± 7.8e-06 | 0.000141 ± 1.7e-05 | 2.41e-05 ± 1e-05 | – | – | – |
